Source: US20090042250

Experiments:
Assay in all cases: cell_activity
[1] = system: ZFN 12176 (synthetic construct); details: pair 12172/12176 (3.0 with 12170), CHO K-1, Cel-1 assay 2 days post-transfection
[2] = system: ZFN 12030 (synthetic construct); details: pair 12029/12030, CHO K-1, Cel-1 assay 2 days post-transfection
[3] = system: ZFN 12170 (synthetic construct); details: pair 12170/12176, CHO K-1, Cel-1 assay 2 days post-transfection
[4] = system: ZFN 12172 (synthetic construct); details: pair 12172/12176, CHO K-1, Cel-1 assay 2 days post-transfection
[5] = system: ZFN 12029 (synthetic construct); details: pair 12029/12030, CHO K-1, Cel-1 assay 2 days post-transfection

With “AAGAAGGGTCATCAG (double strand) [FUT8 exon 10 12176 half-site]” the activity (% chromosomes modified) [1] was 4.4.
“AAGGACACACTG (double strand) [FUT8 12030 half-site]” was tested, and the activity (% chromosomes modified) [2] was 3.3.
Work on “AAGGAGGCAAAGACAAAG (double strand) [FUT8 exon 10 12170/12172 half-site]” yielded an activity (% chromosomes modified) [3] of 3 and an activity (% chromosomes modified) [4] of 4.4.
“GTCTCGGATGCT (double strand) [FUT8 12029 half-site]” gave an activity (% chromosomes modified) [5] of 3.3.
